Target: E351K human MLKL (residues 2–471), recombinant (human) (UniProt Q8NB16)

- liposome dye release (5(6)-carboxyfluorescein), 1 μM protein, with ATP (% maximum dye release): 40
- liposome dye release (5(6)-carboxyfluorescein), 1 μM protein, without ATP: 15 % of maximum
Substance: E351K human MLKL (residues 2–471), recombinant (from UniProt Q8NB16 2-471) (natural protein)
